Data as given in PMC8116589, “Distinguishing Signal From Noise in Immunopeptidome Studies of Limiting-Abundance Biological Samples: Peptides Presented by I-A^b in C57BL/6 Mouse Thymus” (Frontiers in Immunology, 2021).
Where no end group is shown, it is not given here.

Biological target: soluble I-A^b-3R, mouse MHC-II protein (recombinant I-A^b) (mouse)
Assay: fluorescence polarisation; competition: 100 nM I-A^b-3R (3R cut off by thrombin, 1 U/ug), 25 nM Alexa488-labeled CLIP probe peptide, test peptide from 100 uM in 5-fold dilutions, 0.5 uM HLA-DM, read after 72 h at 37 C; 100 mM sodium citrate, 50 mM NaCl, 0.1% octyl glucoside, 5 mM EDTA, 1 mM DTT; three independent experiments, mean and SD

| Binder | IC50 [nM] |
| --- | --- |
| AQRAGYKAAIVHNVDS [… (E3 ubiquitin-protein ligase RNF13 peptide)] | 2420 |
| LNLPTGIPIVYEL (not fully specified) [… (Phosphoglycerate mutase 2 peptide)] | 54400 |
| AGTGVDNVDLEAATR (not fully specified) [… (D-3-phosphoglycerate dehydrogenase peptide)] | 57500 |
| YSMGMHTYQVG [… (Cathepsin S peptide)] | 74100 |

Stronger by IC50, values ahead:

| IC50 [nM] | Binder |
| --- | --- |
| 445 | NDWTVDHPQTLFAWEG [… (B-cell receptor CD22 peptide)] |
| 250 | IRRYGVSQPDAVAAWK (not fully specified) [… (Alpha-N-acetylglucosaminidase peptide)] |
| 152 | QVLSWSSPVGSRTLA [… (Protein Siglecg peptide)] |
